Reference: patent publication US12655441B2, “PPO polypeptides tolerant to PPO-inhibiting herbicides and use thereof” (QINGDAO KINGAGROOT CHEMICAL COMPOUND CO., LTD., priority 2021, dated 2026)

Assays:
[1] = test system: PPO-deficient Escherichia coli (ΔhemG); assay: PPO-deficient E. coli (ΔhemG) transformed by corn ZmPPO1 mutant genes, growth on LB medium containing compound A; assay type: cell-based; details: compound A 5 μM
Method: To verify whether the mutation of the PPO1-conserved protein motif LLLNYI in other plants could also confer resistance to herbicides, the mutation combination of leucine residues at the third position and tyrosine residues at the fifth position in the protein motif LLLNYI was carried out by using the same method as described in the above examples and screened by using of the LB medium containing herbicidal compound A, and the growth inhibition was observed.

Arabidopsis thaliana = assay: Herbicide resistance test of Arabidopsis thaliana seeds overexpressing crop PPO1 WT or mutant on MS medium; assay type: in vivo; details: overexpressed in Arabidopsis thaliana seed; for tolerance to compound A compared with wild-type Arabidopsis thaliana / tolerance to compound A compared with the overexpressed wild-type PPO1: different concentrations of compound A; for tolerance to flumioxazin compared with wild-type Arabidopsis thaliana / tolerance to flumioxazin compared with the overexpressed wild-type PPO1: different concentrations of flumioxazin; for tolerance to saflufenacil compared with wild-type Arabidopsis thaliana / tolerance to saflufenacil compared with the overexpressed wild-type PPO1: different concentrations of saflufenacil
Method: 1) Sowing: plump and vernalized wild-type Arabidopsis thaliana seeds were selected, treated with 75% alcohol for 1 minute, disinfected with 10% NaClO for 6 minutes, and washed with sterile water for 5 to 6 times. After the sterilization was completed, the seeds were placed on a MS medium plate for one week, then transplanted to sterilized nutrient soil (nutrient soil:vermiculite=1:1) and cultured in a greenhouse at (25±2) ° C. with a photoperiod of 16 h/8 h (light/dark).
4) Infestation of Arabidopsis thaliana inflorescences: the uninfected Arabidopsis thaliana with good growth state and lush inflorescences were selected for infection and their fruit pods were cut off from the plants by scissors prior to transformation. The Arabidopsis thaliana inflorescences were dipped in the prepared infection solution for 0.5 to 1 minute. Then the infected Arabidopsis thaliana seedlings were placed in dark and humid conditions for 24 hours. After one week, the infection was repeated.
After the transformation of dipped Arabidopsis thaliana inflorescences, Arabidopsis thaliana TO-generation seeds were collected and sowed on a resistant MS plate containing 30 mg/L hygromycin to screen positive plants.
The obtained overexpressed mutant and wild-type Arabidopsis thaliana seeds of different crops were tested for resistance on a MS medium (petri dish) containing different concentrations of PPO-inhibiting herbicidal compounds, as shown in FIG. 12-23.

B1: L424T/Y426V (protein)
chain: MVAATATATAMATAASPLLNGTRIPARLRHRGLSVRCAAVAGGAAEAPASTGARLSADCVVVGGGISGLCTAQALATRHGVGDVLVTEARARPGGNITTVERPEEGYLWEEGPNSFQPSDPVLTMAVDSGLKDDLVFGDPNAPRFVLWEGKLRPVPSKPADLPFFDLMSIPGKLRAGLGALGIRPPPPGREESVEEFVRRNLGAEVFERLIEPFCSGVYAGDPSKLSMKAAFGKVWRLEETGGSIIGGTIKTIQERSKNPKPPRDARLPKPKGQTVASFRKGLAMLPNAITSSLGSKVKLLWKLTSITKSDDKGYVLEYETPEGVVSVQAKSVIMTIPSYVASNILRPLSSDAADALSRFYYPPVAAVTVSYPKEAIRKECLIDGELQGFGQLHPRSQGVETLGTIYSSSLFPNRAPDGRVLLTNVIGGATNTGIVSKTESELVEAVDRDLRKMLINSTAVDPLVLGVRVWPQAIPQFLVGHLDLLEAAKAALDRGGYDGLFLGGNYVAGVALGRCVEGAYESASQISDFLTKYAYK
modifications: Amino-acid sequence of PPO1 from corn mutant (ZmPPO1 L424T/Y426V)
growth of ΔhemG transformant on plates containing compound A, compared with ZmPPO1-WT [1]: grew normally without an inhibition

B2: GmPPO1 WT: Amino-acid sequence of PPO1 from wild-type soybean (protein)
chain: MVSVFNEILFPPNQTLLRPSLHSPTSFFTSPTRKFPRSRPNPILRCSIAEESTASPPKTRDSAPVDCVVVGGGVSGLCIAQALATKHANANVVVTEARDRVGGNITTMERDGYLWEEGPNSFQPSDPMLTMVVDSGLKDELVLGDPDAPRFVLWNRKLRPVPGKLTDLPFFDLMSIGGKIRAGFGALGIRPPPPGHEESVEEFVRRNLGDEVFERLIEPFCSGVYAGDPSKLSMKAAFGKVWKLEKNGGSIIGGTFKAIQERNGASKPPRDPRLPKPKGQTVGSFRKGLTMLPDAISARLGNKVKLSWKLSSISKLDSGEYSLTYETPEGVVSLQCKTVVLTIPSYVASTLLRPLSAAAADALSKFYYPPVAAVSISYPKEAIRSECLIDGELKGFGQLHPRSQGVETLGTIYSSSLFPNRAPPGRVLLLNYIGGATNTGILSKTDSELVETVDRDLRKILINPNAQDPFVVGVRLWPQAIPQFLVGHLDLLDVAKASIRNTGFEGLFLGGNYVSGVALGRCVEGAYEVAAEVNDFLTNRVYK
modifications: Amino-acid sequence of PPO1 from wild-type soybean (GmPPO1)
tolerance to compound A compared with wild-type Arabidopsis thaliana (Arabidopsis thaliana): certain level of tolerance | tolerance to flumioxazin compared with wild-type Arabidopsis thaliana (Arabidopsis thaliana): certain level of tolerance | tolerance to saflufenacil compared with wild-type Arabidopsis thaliana (Arabidopsis thaliana): certain level of tolerance

B3: GmPPO1 L430S/Y432I: Amino-acid sequence of PPO1 from soybean mutant (protein)
chain: MVSVFNEILFPPNQTLLRPSLHSPTSFFTSPTRKFPRSRPNPILRCSIAEESTASPPKTRDSAPVDCVVVGGGVSGLCIAQALATKHANANVVVTEARDRVGGNITTMERDGYLWEEGPNSFQPSDPMLTMVVDSGLKDELVLGDPDAPRFVLWNRKLRPVPGKLTDLPFFDLMSIGGKIRAGFGALGIRPPPPGHEESVEEFVRRNLGDEVFERLIEPFCSGVYAGDPSKLSMKAAFGKVWKLEKNGGSIIGGTFKAIQERNGASKPPRDPRLPKPKGQTVGSFRKGLTMLPDAISARLGNKVKLSWKLSSISKLDSGEYSLTYETPEGVVSLQCKTVVLTIPSYVASTLLRPLSAAAADALSKFYYPPVAAVSISYPKEAIRSECLIDGELKGFGQLHPRSQGVETLGTIYSSSLFPNRAPPGRVLLSNIIGGATNTGILSKTDSELVETVDRDLRKILINPNAQDPFVVGVRLWPQAIPQFLVGHLDLLDVAKASIRNTGFEGLFLGGNYVSGVALGRCVEGAYEVAAEVNDFLTNRVYK
modifications: Amino-acid sequence of PPO1 from soybean mutant (GmPPO1 L430S/Y432I)
tolerance to compound A compared with the overexpressed wild-type PPO1 (Arabidopsis thaliana): much higher | tolerance to compound A compared with wild-type Arabidopsis thaliana (Arabidopsis thaliana): certain level of tolerance | tolerance to flumioxazin compared with the overexpressed wild-type PPO1 (Arabidopsis thaliana): much higher | tolerance to flumioxazin compared with wild-type Arabidopsis thaliana (Arabidopsis thaliana): certain level of tolerance | tolerance to saflufenacil compared with the overexpressed wild-type PPO1 (Arabidopsis thaliana): much higher | tolerance to saflufenacil compared with wild-type Arabidopsis thaliana (Arabidopsis thaliana): certain level of tolerance

B4: BnPPO1-C5 WT: Amino-acid sequence of PPO1 wild-type from oilseed rape (protein)
chain: MDLSLLRPQPFLSPFSNPFPRSRPYKPPNLRCSVSGGSVVGGSSTIEGGRGGKTVAADCVIVGGGISGLCIAQALVTKHPDAAKSVMVTEAKDRVGGNIITREEQGFLWEEGPNSFQPSDPMLTMVVDSGLKDDLVLGDPTAPRFVLWNGKLRPVPSKLTDLPFFDLMSIGGKIRAGFGAIGIRPSPPGREESVEEFVRRNLGDEVFERLIEPFCSGVYAGDPAKLSMKAAFGKVWKLEENGGSIIGGAFKAIQARNKAPKTTRDPRLPKPKGQTVGSFRKGLTMLPDAISARLGDKVKVSWKLSSISKLPSGGYSLTYETPEGIVTVQSKSVVMTVPSHVASSLLRPLSDSAAEALSKLYYPPVAAVSISYPKEAIRSECLIDGELKGFGQLHPRTQKVETLGTIYSSSLFPNRAPPGRVLLLNYIGGATNTGILSKSEGELVEAVDRDLRKMLIKPSSTDPLVLGVKVWPQAIPQFLIGHIDLVDAAKASLSSSGHEGLFLGGNYVAGVALGRCVEGAYETATQVNDFMSRYAYK
modifications: Amino-acid sequence of PPO1 wild-type from oilseed rape (BnPPO1-C5)
tolerance to compound A compared with wild-type Arabidopsis thaliana (Arabidopsis thaliana): certain level of tolerance | tolerance to flumioxazin compared with wild-type Arabidopsis thaliana (Arabidopsis thaliana): certain level of tolerance | tolerance to saflufenacil compared with wild-type Arabidopsis thaliana (Arabidopsis thaliana): certain level of tolerance

B5: BnPPO1-C5 L424S/Y426I: Amino-acid sequence of PPO1 from oilseed rape mutant (protein)
chain: MDLSLLRPQPFLSPFSNPFPRSRPYKPPNLRCSVSGGSVVGGSSTIEGGRGGKTVAADCVIVGGGISGLCIAQALVTKHPDAAKSVMVTEAKDRVGGNIITREEQGFLWEEGPNSFQPSDPMLTMVVDSGLKDDLVLGDPTAPRFVLWNGKLRPVPSKLTDLPFFDLMSIGGKIRAGFGAIGIRPSPPGREESVEEFVRRNLGDEVFERLIEPFCSGVYAGDPAKLSMKAAFGKVWKLEENGGSIIGGAFKAIQARNKAPKTTRDPRLPKPKGQTVGSFRKGLTMLPDAISARLGDKVKVSWKLSSISKLPSGGYSLTYETPEGIVTVQSKSVVMTVPSHVASSLLRPLSDSAAEALSKLYYPPVAAVSISYPKEAIRSECLIDGELKGFGQLHPRTQKVETLGTIYSSSLFPNRAPPGRVLLSNIIGGATNTGILSKSEGELVEAVDRDLRKMLIKPSSTDPLVLGVKVWPQAIPQFLIGHIDLVDAAKASLSSSGHEGLFLGGNYVAGVALGRCVEGAYETATQVNDFMSRYAYK
modifications: Amino-acid sequence of PPO1 from oilseed rape mutant (BnPPO1-C5 L424S/Y426I)
tolerance to compound A compared with the overexpressed wild-type PPO1 (Arabidopsis thaliana): much higher | tolerance to compound A compared with wild-type Arabidopsis thaliana (Arabidopsis thaliana): certain level of tolerance | tolerance to flumioxazin compared with the overexpressed wild-type PPO1 (Arabidopsis thaliana): much higher | tolerance to flumioxazin compared with wild-type Arabidopsis thaliana (Arabidopsis thaliana): certain level of tolerance | tolerance to saflufenacil compared with the overexpressed wild-type PPO1 (Arabidopsis thaliana): much higher | tolerance to saflufenacil compared with wild-type Arabidopsis thaliana (Arabidopsis thaliana): certain level of tolerance

B6: ZmPPO1 WT: Amino-acid sequence of PPO1 from wild-type corn (protein)
chain: MVAATATATAMATAASPLLNGTRIPARLRHRGLSVRCAAVAGGAAEAPASTGARLSADCVVVGGGISGLCTAQALATRHGVGDVLVTEARARPGGNITTVERPEEGYLWEEGPNSFQPSDPVLTMAVDSGLKDDLVFGDPNAPRFVLWEGKLRPVPSKPADLPFFDLMSIPGKLRAGLGALGIRPPPPGREESVEEFVRRNLGAEVFERLIEPFCSGVYAGDPSKLSMKAAFGKVWRLEETGGSIIGGTIKTIQERSKNPKPPRDARLPKPKGQTVASFRKGLAMLPNAITSSLGSKVKLLWKLTSITKSDDKGYVLEYETPEGVVSVQAKSVIMTIPSYVASNILRPLSSDAADALSRFYYPPVAAVTVSYPKEAIRKECLIDGELQGFGQLHPRSQGVETLGTIYSSSLFPNRAPDGRVLLLNYIGGATNTGIVSKTESELVEAVDRDLRKMLINSTAVDPLVLGVRVWPQAIPQFLVGHLDLLEAAKAALDRGGYDGLFLGGNYVAGVALGRCVEGAYESASQISDFLTKYAYK
modifications: Amino-acid sequence of PPO1 from wild-type corn (ZmPPO1 WT)
tolerance to compound A compared with wild-type Arabidopsis thaliana (Arabidopsis thaliana): certain level of tolerance | tolerance to flumioxazin compared with wild-type Arabidopsis thaliana (Arabidopsis thaliana): certain level of tolerance | tolerance to saflufenacil compared with wild-type Arabidopsis thaliana (Arabidopsis thaliana): certain level of tolerance
